± gives the standard deviation of the averaged measurements.
The sequences below were run on Saccharomyces cerevisiae (assay: protein stability index of tFT-peptide fusion (C-terminal peptide) (PSI (0-1 scale)); higher = more stable (slower turnover)). Conditions: genetic background: wild type; temperature: 37 C.
Procedure: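 MPS profiling in S. cerevisiae of the tFT-X12 degron library: putative degron peptides plus stable controls, 12 aa, fused to the C-terminus of a sfGFP-mCherry timer. Cells are FACS-sorted into 8 mCherry/sfGFP bins and deep-sequenced. PSI runs from 0 (unstable) to 1 (stable). Backgrounds are wild type, das1Δ and doa10Δ at 30 °C, and wild type, das1Δ, cdc34-1 and cdc53-1 at 37 °C; 2-3 technical replicates each.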
ISLVLVVIEVQR was tested, and the protein stability index was 0.249 ± 0.03. Sequence ISVFLFAFFFIP has a protein stability index of 0.425 ± 0.01. For ISVQKRRAIEII, the protein stability index was 0.492 ± 0.03. IVCFCFFLMFSL showed a protein stability index of 0.3766 ± 0.0011. In the case of IVVLCHVFLDLG, the protein stability index is reported as 0.2008 ± 0.00035. Sequence IWCQVGAFLVVF has a protein stability index of 0.337 ± 0.0084. In the case of IYVLLDVNYHLP, the protein stability index is reported as 0.5681 ± 0.0038. For IYVSVMLLRYRF, the protein stability index was 0.481 ± 0.03. For KCKIWFREVSMN, the protein stability index was 0.414 ± 0.027. With KGSFDLPTFSLF the protein stability index was 0.7445 ± 0.0073. KICAVRVIMDWC gave a protein stability index of 0.564 ± 0.014. With KIKVFHEMVLMC the protein stability index was 0.135 ± 0.043. KKNKIYKERKNI showed a protein stability index of 0.462 ± 0.064. KKNTQKKIKLSC was tested, and the protein stability index was 0.281 ± 0.021. With KKRYSEIFKKNG the protein stability index was 0.56 ± 0.039. For KLLLTCTFLVFP, the protein stability index was 0.523 ± 0.018. KNKRQKNTIRKQ was tested, and the protein stability index was 0.573 ± 0.0086. KQNKKHKKLKSN gave a protein stability index of 0.182 ± 0.036. Work on KRLRDFLVIMCS yielded a protein stability index of 0.098 ± 0.02. Sequence KTLCFLCRTRNS has a protein stability index of 0.658 ± 0.017. For KVRVRTTCWRKL, the protein stability index was 0.347 ± 0.0065. KYHLAAQLLVLL showed a protein stability index of 0.556 ± 0.0067. Work on LAFAGRCGLYVC yielded a protein stability index of 0.452 ± 0.0079. With LAGLFICTLISC the protein stability index was 0.2449 ± 0.00042. For LASCRIVVIYSI, the protein stability index was 0.364 ± 0.029. Work on LCFEQRYIGVLV yielded a protein stability index of 0.393 ± 0.018. With LCFVSTWVWSVG the protein stability index was 0.569 ± 0.007. With LCWLCIRWSRVV the protein stability index was 0.085 ± 0.02. In the case of LDIFRKLVIVLC, the protein stability index is reported as 0.0878 ± 0.0015. Sequence LEALRFTFYHFF has a protein stability index of 0.41 ± 0.014. LEGRVLRIFCVT gave a protein stability index of 0.37 ± 0.048. LFFRCVFRISFF showed a protein stability index of 0.331 ± 0.0072. LFGIDIVITYLL showed a protein stability index of 0.392 ± 0.026. With LFILRPVVGVLN the protein stability index was 0.528 ± 0.008. Work on LFIWFVSSPFYC yielded a protein stability index of 0.547 ± 0.01. With LFIYSVCSYYYE the protein stability index was 0.418 ± 0.068. Work on LFRLPSPLLFFL yielded a protein stability index of 0.53 ± 0.016. Work on LFSAFFPLLFLS yielded a protein stability index of 0.0875 ± 0.00095. In the case of LFYATRLLFLCI, the protein stability index is reported as 0.4454 ± 0.002. LGHSLVRFVYCF showed a protein stability index of 0.468 ± 0.016. For LGVGVVPEFFVV, the protein stability index was 0.527 ± 0.0086. LLFVVGTGRWVG was tested, and the protein stability index was 0.482 ± 0.035. For LLHSLILLEWVF, the protein stability index was 0.238 ± 0.0042. For LLIFGLLAVPSP, the protein stability index was 0.542 ± 0.042. With LLLAMLLWVSTM the protein stability index was 0.455 ± 0.038. Sequence LLLFLLLPPFPF has a protein stability index of 0.57 ± 0.0068. For LLLLLPLYLLPI, the protein stability index was 0.368 ± 0.0062. With LLLSLYFCFIFF the protein stability index was 0.309 ± 0.033. LLLSSILLILSS was tested, and the protein stability index was 0.459 ± 0.063. With LLPLLLFFSLLR the protein stability index was 0.373 ± 0.04. For LLPLSLSLLLSV, the protein stability index was 0.53568 ± 0.00041. With LLSAVAHCYFIA the protein stability index was 0.29 ± 0.02. LLSLTLALPLAA gave a protein stability index of 0.4518 ± 0.0011. Work on LLVFSSPPPAKF yielded a protein stability index of 0.869 ± 0.024. Sequence LLVSCPLVLRFR has a protein stability index of 0.511 ± 0.012. Sequence LLYSLVALGVCV has a protein stability index of 0.3667 ± 0.0013. LMFCPPLLRVAL was tested, and the protein stability index was 0.473 ± 0.0086. In the case of LMFSRSLFIVKC, the protein stability index is reported as 0.343 ± 0.037. For LMPYIIFLMSFQ, the protein stability index was 0.498 ± 0.042. LPPSVLPLPPSH showed a protein stability index of 0.752 ± 0.053. LPPVPLRLTLVL was tested, and the protein stability index was 0.477 ± 0.0054. Work on LPRDPLHAQIAS yielded a protein stability index of 0.516 ± 0.036. Work on LQFSLPCFLLIF yielded a protein stability index of 0.208 ± 0.019. Sequence LQLRKQILLLMT has a protein stability index of 0.233 ± 0.034. Sequence LQSVLRGIDCCA has a protein stability index of 0.4341 ± 0.0029. Work on LRCIFVVVSFTP yielded a protein stability index of 0.25 ± 0.0035. LRCLAIFLYRAF showed a protein stability index of 0.563 ± 0.015. LRRQAFRYRTLL was tested, and the protein stability index was 0.2454 ± 0.00035. Work on LRTLVFIWFMYV yielded a protein stability index of 0.2612 ± 0.00061. LRTYSFTIGTLC was tested, and the protein stability index was 0.492 ± 0.015. LSALMVLSFILV showed a protein stability index of 0.428 ± 0.0022. LSFRLSYPLPIY gave a protein stability index of 0.132 ± 0.0069. For LSIALPFPVLCR, the protein stability index was 0.0459 ± 0.011. LSITQLFCLCAV showed a protein stability index of 0.356 ± 0.006. Sequence LSLSLQVVVFSM has a protein stability index of 0.457 ± 0.022. Sequence LSPYPLTFLFSQ has a protein stability index of 0.61752 ± 0.00015. For LSWWCFLVLLHW, the protein stability index was 0.268 ± 0.012. For LTPKRLTVCRLC, the protein stability index was 0.628 ± 0.066.

These sequences were tested on Saccharomyces cerevisiae in the same assay as above. Conditions: genetic background: wild type; temperature: 30 C.
ISLVLVVIEVQR was tested, and the protein stability index was 0.209 ± 0.027. For ISVFLFAFFFIP, the protein stability index was 0.356 ± 0.031. ISVQKRRAIEII showed a protein stability index of 0.451 ± 0.013. For IVCFCFFLMFSL, the protein stability index was 0.378 ± 0.0077. Sequence IVVLCHVFLDLG has a protein stability index of 0.126 ± 0.03. Sequence IWCQVGAFLVVF has a protein stability index of 0.307 ± 0.027. In the case of IYVLLDVNYHLP, the protein stability index is reported as 0.468 ± 0.042. In the case of IYVSVMLLRYRF, the protein stability index is reported as 0.465 ± 0.043. In the case of KCKIWFREVSMN, the protein stability index is reported as 0.32 ± 0.066. KGSFDLPTFSLF was tested, and the protein stability index was 0.504 ± 0.095. KICAVRVIMDWC showed a protein stability index of 0.4769 ± 0.0044. Sequence KIKVFHEMVLMC has a protein stability index of 0.18 ± 0.0043. KKNKIYKERKNI showed a protein stability index of 0.434 ± 0.046. KKNTQKKIKLSC gave a protein stability index of 0.358 ± 0.011. Sequence KKRYSEIFKKNG has a protein stability index of 0.408 ± 0.05. KLLLTCTFLVFP showed a protein stability index of 0.435 ± 0.0062. Work on KNKRQKNTIRKQ yielded a protein stability index of 0.463 ± 0.016. In the case of KQNKKHKKLKSN, the protein stability index is reported as 0.182 ± 0.091. KRLRDFLVIMCS was tested, and the protein stability index was 0.196 ± 0.014. In the case of KTLCFLCRTRNS, the protein stability index is reported as 0.52 ± 0.033. KVRVRTTCWRKL was tested, and the protein stability index was 0.255 ± 0.019. For KYHLAAQLLVLL, the protein stability index was 0.459 ± 0.037. LAFAGRCGLYVC showed a protein stability index of 0.362 ± 0.053. With LAGLFICTLISC the protein stability index was 0.254 ± 0.071. LASCRIVVIYSI showed a protein stability index of 0.33 ± 0.068. LCFEQRYIGVLV gave a protein stability index of 0.372 ± 0.0085. Sequence LCFVSTWVWSVG has a protein stability index of 0.474 ± 0.037. For LCWLCIRWSRVV, the protein stability index was 0.152 ± 0.0052. LDIFRKLVIVLC gave a protein stability index of 0.169 ± 0.07. Work on LEALRFTFYHFF yielded a protein stability index of 0.34252 ± 7.1e-06. LEGRVLRIFCVT gave a protein stability index of 0.263 ± 0.057. Work on LFFRCVFRISFF yielded a protein stability index of 0.327 ± 0.0064. LFGIDIVITYLL showed a protein stability index of 0.398 ± 0.011. For LFILRPVVGVLN, the protein stability index was 0.495 ± 0.053. Sequence LFIWFVSSPFYC has a protein stability index of 0.452 ± 0.023. LFIYSVCSYYYE showed a protein stability index of 0.349 ± 0.0058. LFRLPSPLLFFL gave a protein stability index of 0.484 ± 0.028. LFSAFFPLLFLS was tested, and the protein stability index was 0.112 ± 0.013. For LFYATRLLFLCI, the protein stability index was 0.367 ± 0.0039. In the case of LGHSLVRFVYCF, the protein stability index is reported as 0.451 ± 0.0073. For LGVGVVPEFFVV, the protein stability index was 0.464 ± 0.0065. Sequence LLFVVGTGRWVG has a protein stability index of 0.302 ± 0.046. With LLHSLILLEWVF the protein stability index was 0.272 ± 0.021. LLIFGLLAVPSP gave a protein stability index of 0.4771 ± 0.0012. In the case of LLLAMLLWVSTM, the protein stability index is reported as 0.388 ± 0.0058. Work on LLLFLLLPPFPF yielded a protein stability index of 0.504 ± 0.025. LLLLLPLYLLPI gave a protein stability index of 0.372 ± 0.048. LLLSLYFCFIFF was tested, and the protein stability index was 0.329 ± 0.074. For LLLSSILLILSS, the protein stability index was 0.34 ± 0.019. LLPLLLFFSLLR showed a protein stability index of 0.466 ± 0.03. Sequence LLPLSLSLLLSV has a protein stability index of 0.453 ± 0.023. Work on LLSAVAHCYFIA yielded a protein stability index of 0.297 ± 0.019. Work on LLSLTLALPLAA yielded a protein stability index of 0.455 ± 0.047. LLVFSSPPPAKF gave a protein stability index of 0.81 ± 0.023. LLVSCPLVLRFR showed a protein stability index of 0.53 ± 0.048. Sequence LLYSLVALGVCV has a protein stability index of 0.3805 ± 0.0005. LMFCPPLLRVAL gave a protein stability index of 0.485 ± 0.013. In the case of LMFSRSLFIVKC, the protein stability index is reported as 0.295 ± 0.043. In the case of LMPYIIFLMSFQ, the protein stability index is reported as 0.418 ± 0.014. With LPPSVLPLPPSH the protein stability index was 0.729 ± 0.021. LPPVPLRLTLVL gave a protein stability index of 0.4414 ± 0.00093. For LPRDPLHAQIAS, the protein stability index was 0.384 ± 0.069. For LQFSLPCFLLIF, the protein stability index was 0.221 ± 0.033. LQLRKQILLLMT gave a protein stability index of 0.299 ± 0.025. LQSVLRGIDCCA gave a protein stability index of 0.411 ± 0.085. For LRCIFVVVSFTP, the protein stability index was 0.291 ± 0.15. LRCLAIFLYRAF was tested, and the protein stability index was 0.466 ± 0.013. LRRQAFRYRTLL was tested, and the protein stability index was 0.221 ± 0.0096. For LRTLVFIWFMYV, the protein stability index was 0.19 ± 0.067. Work on LRTYSFTIGTLC yielded a protein stability index of 0.385 ± 0.012. With LSALMVLSFILV the protein stability index was 0.418 ± 0.033. For LSFRLSYPLPIY, the protein stability index was 0.178 ± 0.032. For LSIALPFPVLCR, the protein stability index was 0.134 ± 0.012. LSITQLFCLCAV was tested, and the protein stability index was 0.3742 ± 0.0031. For LSLSLQVVVFSM, the protein stability index was 0.467 ± 0.022. LSPYPLTFLFSQ gave a protein stability index of 0.51 ± 0.042. LSWWCFLVLLHW showed a protein stability index of 0.302 ± 0.094. In the case of LTPKRLTVCRLC, the protein stability index is reported as 0.512 ± 0.079.
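Note: PSI is a weighted mean of sequencing reads over stability bins, variants kept only with over 10 reads, mCherry proximal and sfGFP distal, peptide attached via GGGS linker.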
